Target: Hemagglutinin of AIV A/duck/It/775/04(H5N3) (Influenza A virus A/duck/Italy/775/2004(H5N3))
Assay: cell-based or functional assay

Substance | HI titer [µg/mL]
mAb 9 (Pierce/Thermo Sci., Cat. No. MA1-81928) (antibody) | 7.8
mAb 7: Monoclonal Antibody to Influenza A (Hemagglutinin H5) H5N1 - Purified, Acris Antibodies AM00945PU-N | 2
mAb 8: Monoclonal Antibody to Influenza A (Hemagglutinin H5) H5N1 - Purified, Acris Antibodies AM00941PU-N | 1
